Experiment [1] deals with CckA_(L391F) (two-hybrid fusion) (Rhodobacter sphaeroides). Conditions: scale: times higher concentration of Osp than for wild-type CckA.
For experiment [2], the target named is Gal4BD-CckAΔTM (Rhodobacter sphaeroides).

In experiment [1], Gal4AD-Osp (natural protein) returned an inhibition of CckA L391F autophosphorylation with [γ-32P]ATP, purified proteins (2.5 μM His6-CckA L391F cytoplasmic domain, Osp-His6 0 to 10 μM, 30 min), against wild-type CckA of 4. Also, the inhibition of CckA autophosphorylation with [γ-32P]ATP, purified proteins (2.5 μM His6-CckA cytoplasmic domain, Osp-His6 0 to 10 μM, 30 min) in experiment [2] was determined as 50%.

(Values after paper PMC9430884.)
